Measurements: patent publication US20160355587A1 (CYTOMX THERAPEUTICS, published 2016)

Molecular target: T1, human CD166 protein (human, UniProt Q13740 28-526, limits assumed)
T1 construct: Isolated human CD166 protein coated on ELISA plates; also called ALCAM
T1 sequence (looked up): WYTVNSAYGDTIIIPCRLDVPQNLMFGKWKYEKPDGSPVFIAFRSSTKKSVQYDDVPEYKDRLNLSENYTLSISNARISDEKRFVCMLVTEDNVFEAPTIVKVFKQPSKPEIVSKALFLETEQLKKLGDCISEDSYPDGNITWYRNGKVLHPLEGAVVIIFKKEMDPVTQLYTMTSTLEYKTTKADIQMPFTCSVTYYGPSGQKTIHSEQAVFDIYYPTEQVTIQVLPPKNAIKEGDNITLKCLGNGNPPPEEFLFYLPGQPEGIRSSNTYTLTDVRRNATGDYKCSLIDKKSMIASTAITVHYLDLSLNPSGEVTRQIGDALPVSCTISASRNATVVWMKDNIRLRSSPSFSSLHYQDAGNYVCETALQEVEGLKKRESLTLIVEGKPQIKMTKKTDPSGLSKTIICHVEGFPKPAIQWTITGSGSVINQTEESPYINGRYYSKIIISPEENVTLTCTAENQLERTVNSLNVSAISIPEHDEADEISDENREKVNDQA
Test: ELISA, human CD166 protein coated; positive control
Protocol: The antibody CD166-M9 antibody comprising VH of SEQ ID NO: 119, VL of SEQ ID NO: 120 was used a positive control, and an isotype control antibody was used a negative control.
Using a standard ELISA protocol, human CD166 protein was absorbed to ELISA plates and subsequently incubated with the indicated concentration of antibody. Bound antibody was detected with an anti-human FAB-peroxidase secondary.

binding result: binds
B1: CD166-M9 antibody (mouse anti-CD166 Mab M9) (antibody, V domains shown)
VH: QVTLKESGPGILQPSQTLSLTCSFSGFSLSTYGMGVGWIRQPSGKGLEWLANIWWSEDKHYNSALKSRLTISKDTSNNQVFLKISSVDTADTATYYCVQIDYGNDYAFTYWGQGTLVTVSA
VL: DIVMTQAAFSNPVTLGTSASISCRSSKSLLHSNGITYLYWYLQKPGQSPQLLIYQMSNLASGVPDRFSSSGSGTDFTLRISRVEAEDVGVYYCAQNLELPYTFGGGTKLEIKR
notes: Obtained by mouse hybridoma technology; also called M9 mAb; muM9
